Among the data in publication doi:10.1101/559005 are Kd values, retold here.

For assay [1], the target named is ScSth1p bromodomain (residues 1250-1359), wild type (S. cerevisiae) (UniProt P32597). The assay is described as follows: ITC.
The target in assay [2] is ScSth1p Ser1276Glu mutant bromodomain (S. cerevisiae) (UniProt P32597). Kind of assay: ITC.

Broadly, the Kd is the free concentration of one partner at which half of the binding sites on the other are occupied at equilibrium, for simple one-to-one binding. Read a high Kd as lower affinity.

The substance HsH2AK15ac peptide displayed a dissociation constant (Kd) in assay [1] of 44 µM. In the case of H4K20ac peptide, the Kd in assay [2] was 31 µM; in assay [1], 48 µM.

As to H3K14ac peptide, the dissociation constant (Kd) in assay [2] was determined as 3 µM; in assay [1] it was 18 µM.
